Test results taken from patent publication US20150104469A1 (EXTEND BIOSCIENCES, published 2015).

Biological target: GHS-R receptor
Assay: cell-based or functional assay

GHS-R receptor, sequence (Q92847 whole entry): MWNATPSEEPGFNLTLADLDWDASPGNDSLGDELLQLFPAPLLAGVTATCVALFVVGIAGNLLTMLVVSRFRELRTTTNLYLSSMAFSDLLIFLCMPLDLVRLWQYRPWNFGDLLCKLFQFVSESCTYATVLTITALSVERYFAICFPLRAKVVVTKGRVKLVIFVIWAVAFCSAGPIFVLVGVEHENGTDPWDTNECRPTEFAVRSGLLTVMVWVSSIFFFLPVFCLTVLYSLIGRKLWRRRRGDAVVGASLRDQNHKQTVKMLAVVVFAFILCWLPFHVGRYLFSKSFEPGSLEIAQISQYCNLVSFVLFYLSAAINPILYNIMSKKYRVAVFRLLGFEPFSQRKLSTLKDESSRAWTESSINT

B1: Vitamin D3-PEG-maleimide carrier-conjugated ghrelin from Example 3 (peptide)
peptide: GSSFLSPEHQKAQQRKESKKPPAKLQPRC
modifications: n-octanoyl-Ser at position 3; Vitamin D3-PEG (2 kDa)-maleimide carrier coupled to the free thiol of the added C-terminal cysteine
For B1, the “EC50, calcium flux (FLIPR) % activation in GHS-R-expressing CHO-K1 cells” value was 85 nM.
